We go through 1 molecule from article PMC6638009 (Molecular Plant Pathology, 2018).

Broadly, the Kd is the equilibrium constant for the complex coming apart. A higher Kd goes with lower affinity.

Some results are limits rather than exact numbers.

One assay concerns the target His-tagged PthXo1 (Xanthomonas oryzae pv. oryzae, UniProt B2SU53 1-1373). The assay is described as follows: MST; […]; 50 mM Tris-HCl pH 7.8, 150 mM NaCl, 10 mM MgCl2, 0.05% Tween-20; 25°C; […]. To be noted: both partners purified.
In the next assay the target is His-tagged AvrXa27 (Xanthomonas oryzae pv. oryzae, UniProt A0A0K0GNW2 1-1136). Described as above. The following applies: both partners purified.

B1: His-tagged Xa5 (OsTFIIAγ5), labelled with NT-647 (natural protein, rice (Oryza sativa), UniProt A2XZI2 1-106, looked up)
chain: MATFELYRRSTIGMCLTETLDEMVSSGTLSPELAIQVLVQFDKSMTEALENQVKSKVSIKGHLHTYRFCDNVWTFILTEASFKNEETTEQVGKVKIVACDSKLLSQ
modifications: amine-reactive red fluorescent dye NT-647
For the molecule B1, the Kd in the assay with His-tagged PthXo1 and with His-tagged AvrXa27 was under 1 µM each time.
